Results reported in article doi:10.1101/2025.07.24.666505.

Assays:
[1] = target: DNA gyrase (GyrA+GyrB, full Gyrase);VcParE2 (Escherichia coli;Vibrio cholerae) (UniProt P0AES4+P0AES6+Q9KMJ0); test: EMSA
[2] = target: Vibrio cholerae ParE2 (VcParE2), wild type, C-terminally histidine-tagged (Vibrio cholerae); test: BLI

Sequence of UniProt P0AES4 (P0AES4 whole entry, one chain of several): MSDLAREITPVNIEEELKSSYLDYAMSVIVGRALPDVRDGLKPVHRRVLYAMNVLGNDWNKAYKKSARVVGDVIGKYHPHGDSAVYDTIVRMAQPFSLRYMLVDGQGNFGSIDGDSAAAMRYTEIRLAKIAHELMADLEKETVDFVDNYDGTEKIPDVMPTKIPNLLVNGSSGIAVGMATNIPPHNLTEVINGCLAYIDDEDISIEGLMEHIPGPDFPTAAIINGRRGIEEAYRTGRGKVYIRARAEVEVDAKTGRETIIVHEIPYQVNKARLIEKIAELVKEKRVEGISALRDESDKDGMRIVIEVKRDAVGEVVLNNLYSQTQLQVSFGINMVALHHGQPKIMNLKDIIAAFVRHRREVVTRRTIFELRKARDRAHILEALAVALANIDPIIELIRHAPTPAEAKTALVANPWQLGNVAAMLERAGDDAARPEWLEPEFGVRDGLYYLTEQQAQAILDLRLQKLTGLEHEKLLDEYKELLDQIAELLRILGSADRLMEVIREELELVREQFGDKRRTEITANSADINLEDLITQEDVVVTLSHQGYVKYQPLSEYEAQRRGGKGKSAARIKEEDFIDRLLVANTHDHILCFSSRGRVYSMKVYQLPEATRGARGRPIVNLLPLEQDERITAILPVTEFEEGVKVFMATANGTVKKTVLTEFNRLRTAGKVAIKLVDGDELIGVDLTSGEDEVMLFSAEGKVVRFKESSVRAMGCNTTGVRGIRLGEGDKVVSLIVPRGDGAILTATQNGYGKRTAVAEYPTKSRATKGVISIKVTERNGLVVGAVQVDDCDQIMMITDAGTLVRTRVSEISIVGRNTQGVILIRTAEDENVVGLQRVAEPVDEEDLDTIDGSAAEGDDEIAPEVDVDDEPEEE

| Substance | binding [1] | Kd [2] [nM] |
| --- | --- | --- |
| GCTGCTCATCATGGTTTGTGAGCAGTCAGTTTGCGGGAGGTGCGGGAAAATCTGGGGTTATGCTATTTGAGTACTGGAGAAAGAAAGTGAAAGGAAGATAAAACGGGATTCATACACCGTTAAATACCGGTTTAAAAATCCCGTGGCGCGTTTTAAAAAATCTGTGCGGCTGATTTTATGCCTGATTCTGTTTATTGCCTCAGAGCGGCGCTGACGCGTTTTCTGATGGCATCAAAAATTTCCTGTTCCCCGGTCTTATCCAGCCCCATATAAGGACGCGCAGGAA (double strand) [286-bp Mu strong gyrase site fragment] | binds |  |
| VcParD2 peptide E41-S60 (N-terminal helix of the C-terminal domain) |  | 778 |
